Results taken from patent US20220281969A1 (ANTLERA THERAPEUTICS, published 2022).

Molecular target: T1, recombinant mouse LRP5-His chimera (mouse, UniProt Q91VN0 31-1383)
T1 construct: extracellular domain; not shown: His tag
T1 sequence (looked up): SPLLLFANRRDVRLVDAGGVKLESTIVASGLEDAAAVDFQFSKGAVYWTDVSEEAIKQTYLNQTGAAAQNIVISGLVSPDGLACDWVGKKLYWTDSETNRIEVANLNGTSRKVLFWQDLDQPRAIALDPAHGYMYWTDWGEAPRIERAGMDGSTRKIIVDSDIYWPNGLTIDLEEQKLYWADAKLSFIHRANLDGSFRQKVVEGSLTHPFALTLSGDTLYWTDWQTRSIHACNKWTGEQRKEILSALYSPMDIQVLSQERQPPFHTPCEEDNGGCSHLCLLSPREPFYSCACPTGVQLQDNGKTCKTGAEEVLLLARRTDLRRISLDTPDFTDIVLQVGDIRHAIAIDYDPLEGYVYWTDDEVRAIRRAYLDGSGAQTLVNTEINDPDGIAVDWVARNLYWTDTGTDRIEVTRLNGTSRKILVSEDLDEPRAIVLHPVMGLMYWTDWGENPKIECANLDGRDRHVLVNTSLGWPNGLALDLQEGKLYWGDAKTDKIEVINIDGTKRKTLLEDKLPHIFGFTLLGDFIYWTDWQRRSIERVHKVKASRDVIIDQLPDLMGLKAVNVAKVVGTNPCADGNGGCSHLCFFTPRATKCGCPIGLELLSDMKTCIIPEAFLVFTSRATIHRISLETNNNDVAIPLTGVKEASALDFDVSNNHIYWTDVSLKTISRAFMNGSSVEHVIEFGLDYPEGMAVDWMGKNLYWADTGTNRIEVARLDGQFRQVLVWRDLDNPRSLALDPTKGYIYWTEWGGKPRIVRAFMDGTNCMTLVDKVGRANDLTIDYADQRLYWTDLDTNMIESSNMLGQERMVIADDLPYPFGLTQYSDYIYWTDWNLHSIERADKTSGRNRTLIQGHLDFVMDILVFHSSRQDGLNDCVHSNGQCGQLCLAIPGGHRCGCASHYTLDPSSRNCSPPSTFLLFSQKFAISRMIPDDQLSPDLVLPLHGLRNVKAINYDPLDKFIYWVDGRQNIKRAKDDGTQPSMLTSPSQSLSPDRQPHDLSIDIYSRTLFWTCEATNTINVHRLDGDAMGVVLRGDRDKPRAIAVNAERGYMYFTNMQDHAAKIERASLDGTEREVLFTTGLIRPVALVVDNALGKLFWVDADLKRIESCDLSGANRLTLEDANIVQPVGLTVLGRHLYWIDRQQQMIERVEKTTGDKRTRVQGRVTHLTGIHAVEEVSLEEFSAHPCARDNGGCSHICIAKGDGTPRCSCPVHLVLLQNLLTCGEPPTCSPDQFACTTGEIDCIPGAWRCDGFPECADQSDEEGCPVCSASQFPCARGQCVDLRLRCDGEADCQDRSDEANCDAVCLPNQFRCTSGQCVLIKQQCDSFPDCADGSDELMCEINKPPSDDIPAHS
Assay: single-point ELISA, IgG1 on coated antigen

B1: LRP6-E3 IgG1 antibody (antibody, V domains shown)
VH: EVQLVESGGGLVQPGGSLRLSCAASGFNLYYYSMHWVRQAPGKGLEWVASIYSSYGYTYYADSVKGRFTISADTSKNTAYLQMNSLRAEDTAVYYCARYAGYYYYPWAYYGWPFSGLDYWGQGTLVTVSS
VL: DIQMTQSPSSLSASVGDRVTITCRASQSVSSAVAWYQQKPGKAPKLLIYSASSLYSGVPSRFSGSRSGTDFTLTISSLQPEDFATYYCQQAGSAPYHLITFGQGTKVEIKR
notes: Tested as purified full length IgG1
- binding result: no binding
